# Reference: the supplement of paper PMC10724198
# ± gives the standard deviation of the averaged measurements.
# System: Saccharomyces cerevisiae
# Assay: protein stability index of tFT-peptide fusion (C-terminal peptide) (PSI (0-1 scale)); higher = more stable (slower turnover)
# Conditions: genetic background: cdc34-1; temperature: 37 C
# Description: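 MPS profiling in S. cerevisiae of the tFT-X12 degron library: putative degron peptides plus stable controls, 12 aa, fused to the C-terminus of a sfGFP-mCherry timer. Cells are FACS-sorted into 8 mCherry/sfGFP bins and deep-sequenced. PSI runs from 0 (unstable) to 1 (stable). Backgrounds are wild type, das1Δ and doa10Δ at 30 °C, and wild type, das1Δ, cdc34-1 and cdc53-1 at 37 °C; 2-3 technical replicates each.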
# 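Further: PSI is a weighted mean of sequencing reads over stability bins, variants kept only with over 10 reads, mCherry proximal and sfGFP distal, peptide attached via GGGS linker.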
row,Sequence,protein stability index
1,VVGVVVCWGRGW,0.603 ± 0.015
2,VVISRVLAIRLL,0.5452 ± 0.00094
3,VVIWWFSAVVSV,0.0446 ± 0.0021
4,VVPVGLYSVILV,0.427 ± 0.012
5,VVSGLNYCLVLS,0.48 ± 0.033
6,VVVCSLVPLFVL,0.3086 ± 0.0026
7,VVVVWVVVEIVR,0.147 ± 0.033
8,VVWVYSMLFSIW,0.19 ± 0.02
9,VWFFLLSFANRL,0.4767 ± 0.0035
10,VWFGGFVCSVLG,0.366 ± 0.019
11,VWFGGLAVCCGG,0.398 ± 0.024
12,VWYSCWSFLVLF,0.444 ± 0.026
13,VYRRKLDRLLCI,0.561 ± 0.029
14,WAAVGIQLRLLF,0.354 ± 0.011
15,WALVLLVPVWFD,0.442 ± 0.031
16,WCAGCLGWWLQS,0.683 ± 0.059
17,WCAMITVFCGSG,0.268 ± 0.035
18,WCAVRVWFGAAL,0.648 ± 0.052
19,WCCVFVARFFWL,0.416 ± 0.013
20,WEISNFFGCFIG,0.671 ± 0.031
21,WFFTDIVMLVRV,0.126 ± 0.014
22,WFSVFTMSILSR,0.416 ± 0.026
23,WFWVAVGVVGGG,0.496 ± 0.029
24,WGCIFWFFDVRV,0.193 ± 0.0065

row,Sequence,protein stability index
1,WGGEFLSLTLSS,0.732 ± 0.028
2,WGIPRRPTLFIP,0.65 ± 0.0098
3,WHLLRFETQMFC,0.571 ± 0.018
4,WHVSLRFAFYVF,0.2459 ± 0.0022
5,WIVQCCLYVPVQ,0.288 ± 0.011
6,WIYKIVTYEKKS,0.701 ± 0.05
7,WLGLFAFRRCLV,0.544 ± 0.03
8,WLVIWPRKLSTV,0.588 ± 0.039
9,WLVVGGVVLLVV,0.246 ± 0.029
10,WRLRIAAVVRSS,0.556 ± 0.047
11,WRVVVSCALHVC,0.123 ± 0.014
12,WSCFLLLLSLSL,0.424 ± 0.056
13,WSFAPRLRCSYL,0.927 ± 0.0095
14,WSMSSPPLLLAS,0.314 ± 0.014
15,WVIWFFVAACLR,0.219 ± 0.006
16,WVVVGWVGVGFR,0.508 ± 0.029
17,WVVWVLVGGFGG,0.299 ± 0.022
18,WVVWWFACVFGV,0.346 ± 0.009
19,WVYVFVSLFFVV,0.185 ± 0.0071
20,WYLLCESCLLCL,0.534 ± 0.021
21,WYVRVYVLSVES,0.136 ± 0.021
22,YCAAVCFWGLYC,0.522 ± 0.015
23,YDVQIEFCVVEV,0.601 ± 0.035
24,YFFFFLHFNFAF,0.145 ± 0.062

row,Sequence,protein stability index
1,YFFFYFFLLFHL,0.265 ± 0.051
2,YFWWLWMSFWVG,0.4935 ± 0.0028
3,YGWGFLFILTLM,0.15 ± 0.032
4,YHGVYLARVLQA,0.639 ± 0.0084
5,YIFLLRFFFFFS,0.367 ± 0.014
6,YILIKEVLYAVC,0.169 ± 0.0061
7,YIRINNIYWKKS,0.58 ± 0.016
8,YLFPHVRPKFPG,0.693 ± 0.042
9,YLVSFVAFLRLF,0.336 ± 0.02
10,YMNLYKNVISVT,0.473 ± 0.044
11,YMVESVWVLLGT,0.573 ± 0.029
12,YPFIPLIVCGFF,0.401 ± 0.028
13,YPVGAAFIRARA,0.45 ± 0.016
14,YQHSRSGRNKII,0.591 ± 0.12
15,YSRFALRPQLLV,0.553 ± 0.051
16,YSVNSLFCKVFG,0.469 ± 0.012
17,YTCFLFLLRCMT,0.303 ± 0.048
18,YVDSGLTLIHLA,0.606 ± 0.0079
19,YVQTKKTRYVLV,0.483 ± 0.027
20,YVSIWSPILWLA,0.1694 ± 0.0014
21,YYFCMYFKVTLC,0.0445 ± 0.006
22,YYFFLTFLCYVF,0.153 ± 0.024

# Same assay, conditions: genetic background: cdc53-1; temperature: 37 C
row,Sequence,protein stability index
1,VVGVVVCWGRGW,0.666 ± 0.029
2,VVISRVLAIRLL,0.6095 ± 0.0003
3,VVIWWFSAVVSV,0.138 ± 0.026
4,VVPVGLYSVILV,0.447 ± 0.028
5,VVSGLNYCLVLS,0.48 ± 0.029
6,VVVCSLVPLFVL,0.32 ± 0.035
7,VVVVWVVVEIVR,0.275 ± 0.11
8,VVWVYSMLFSIW,0.3594 ± 0.00053
9,VWFFLLSFANRL,0.5386 ± 0.004
10,VWFGGFVCSVLG,0.361 ± 0.012
11,VWFGGLAVCCGG,0.405 ± 0.037
12,VWYSCWSFLVLF,0.548 ± 0.011
13,VYRRKLDRLLCI,0.615 ± 0.025
14,WAAVGIQLRLLF,0.34 ± 0.015
15,WALVLLVPVWFD,0.553 ± 0.06
16,WCAGCLGWWLQS,0.8029 ± 0.003
17,WCAMITVFCGSG,0.29 ± 0.041
18,WCAVRVWFGAAL,0.676 ± 0.028
19,WCCVFVARFFWL,0.504 ± 0.013
20,WEISNFFGCFIG,0.758 ± 0.026
21,WFFTDIVMLVRV,0.12 ± 0.044
22,WFSVFTMSILSR,0.479 ± 0.0075
23,WFWVAVGVVGGG,0.534 ± 0.022
24,WGCIFWFFDVRV,0.335 ± 0.015

row,Sequence,protein stability index
1,WGGEFLSLTLSS,0.761 ± 0.018
2,WGIPRRPTLFIP,0.749 ± 0.03
3,WHLLRFETQMFC,0.7091 ± 0.0027
4,WHVSLRFAFYVF,0.326 ± 0.02
5,WIVQCCLYVPVQ,0.314 ± 0.017
6,WIYKIVTYEKKS,0.701 ± 0.03
7,WLGLFAFRRCLV,0.583 ± 0.013
8,WLVIWPRKLSTV,0.632 ± 0.005
9,WLVVGGVVLLVV,0.28548 ± 0.00015
10,WRLRIAAVVRSS,0.655 ± 0.031
11,WRVVVSCALHVC,0.167 ± 0.0054
12,WSCFLLLLSLSL,0.4452 ± 0.0035
13,WSFAPRLRCSYL,0.925 ± 0.012
14,WSMSSPPLLLAS,0.301 ± 0.017
15,WVIWFFVAACLR,0.24 ± 0.018
16,WVVVGWVGVGFR,0.548 ± 0.038
17,WVVWVLVGGFGG,0.42448 ± 0.00021
18,WVVWWFACVFGV,0.404 ± 0.0089
19,WVYVFVSLFFVV,0.2552 ± 0.0011
20,WYLLCESCLLCL,0.536 ± 0.0079
21,WYVRVYVLSVES,0.176 ± 0.028
22,YCAAVCFWGLYC,0.654 ± 0.023
23,YDVQIEFCVVEV,0.57 ± 0.019
24,YFFFFLHFNFAF,0.169 ± 0.036

row,Sequence,protein stability index
1,YFFFYFFLLFHL,0.272 ± 0.036
2,YFWWLWMSFWVG,0.53 ± 0.011
3,YGWGFLFILTLM,0.153 ± 0.03
4,YHGVYLARVLQA,0.677 ± 0.021
5,YIFLLRFFFFFS,0.435 ± 0.0084
6,YILIKEVLYAVC,0.171 ± 0.0086
7,YIRINNIYWKKS,0.755 ± 0.024
8,YLFPHVRPKFPG,0.747 ± 0.014
9,YLVSFVAFLRLF,0.446 ± 0.013
10,YMNLYKNVISVT,0.47 ± 0.054
11,YMVESVWVLLGT,0.5755 ± 0.0052
12,YPFIPLIVCGFF,0.41 ± 0.0085
13,YPVGAAFIRARA,0.501 ± 0.021
14,YQHSRSGRNKII,0.724 ± 0.033
15,YSRFALRPQLLV,0.634 ± 0.013
16,YSVNSLFCKVFG,0.4777 ± 0.00052
17,YTCFLFLLRCMT,0.3521 ± 0.00065
18,YVDSGLTLIHLA,0.723 ± 0.036
19,YVQTKKTRYVLV,0.506 ± 0.027
20,YVSIWSPILWLA,0.262 ± 0.012
21,YYFCMYFKVTLC,0.15 ± 0.064
22,YYFFLTFLCYVF,0.216 ± 0.039

# Same assay, conditions: genetic background: das1 deletion; temperature: 30 C
row,Sequence,protein stability index
1,VVGVVVCWGRGW,0.463 ± 0.024
2,VVISRVLAIRLL,0.5 ± 0.027
